Data from patent US20090298196A1 (published 2009).
Ends that are not written are not given here.

T1: peptide of sequence no. 2 (GPPGPQG, amino acid nos. 769 to 775 of human type 2 collagen) (human, also: immunogen form had an N-terminal cysteine added)
T1 peptide: GPPGPQG

T2: peptide of sequence no. 1 (GEPGDDAPS, amino acid nos. 757 to 765 of human type 2 collagen) (human, also: biotin-labeled in DELFIA screening, immunogen form had a C-terminal cysteine added)
T2 construct: also called biotin-labeled target antigen peptide
T2 peptide: GEPGDDAPS


Experiments:
[1] = target: T1, peptide of sequence no. 2 (GPPGPQG, …); test: characterisation of the antibody (peptide immunisation and DELFIA screening)
Method: (§1) The screening was done using the time-resolved fluorescence immunoassay (DELFIA, Amersham, registered trademark) described below. 50 μl measurement buffer solution (50 mM tris hydrochloric acid buffer solution (pH 7.5) containing 150 mM NaCl, 0.01% Tween80, 0.5% BSA and 0.05% NaN₃), 50 μl culture supernatant and 50 μl labeled antigen (measurement buffer solution containing 20 ng/ml biotin-labeled target antigen peptide and 100 ng/ml europium-labeled streptoavidine (manufactured by Perkin-Elmer Life Science)) were consecutively added to microtiter plates (manufactured by Sumitomo Bakelite) with solidified anti-mouse IgG antibodies (manufactured by Shibayagi), and a reaction was conducted at 4° C. for 16 hours. After washing the plates twice using 200 μl washing solution (150 mM NaCl, 0.02% NaN₃ and 0.01% Tween20), 150 μl enhancement solution (manufactured by Perkin-Elmer Life Science) were added, and the time-resolved fluorescence was measured using 1420ARVOsx Multilabel Counter (manufactured by Perkin-Elmer Life Science). One well with high reactivity was selected by means of this screening, cloning was repeated twice using the limiting dilution method, and the presence of antibody-producing hybridoma TAG-6G4 was established. […]

[2] = target: T2, peptide of sequence no. 1 (GEPGDDAPS, …); test: as above
Method: as §1

Row | binding result [1] | binding result [2] | Binder
1 | binds |  | 2E6 antibody (monoclonal antibody produced by hybridoma TAG-2E6) (antibody, V domains shown, Mouse IgG2b(k), 150 kDa, H chain 50 kDa and L chain 27 kDa; It was labeled with XL665 for the HTRF assay and immobilised on a carrier column for purification; also called 2E6 antibodies; XL665-labeled 2E6 antibodies) VH: QVTLKESGPGILQPSQTLSLTCSFSGFSLSTYGMGVGWIRQPSGKGLEWLAHIWWNDNKYYNTTLKSRLTISKDTSNKQVFLKIASVDTADTATYYCARIERWDPWFAYWGQGTLVTVSA VL: DVVMTQTPLSLPVSLGDQASISCRSSQSLVYSNGNTYFHWYLQKPGQSPKLLIYKVSNRFSGVPDRFSGSGSGTDFTLKISRVEAEDLGVYFCSQSTHVPLTFGAGTKLELKR
2 |  | binds | 6G4 antibody (monoclonal antibody produced by hybridoma TAG-6G4) (antibody, mouse IgG1, V domains shown, Mouse IgG1(k), 150 kDa, H chain 50 kDa and L chain 27 kDa; It was labeled with europium cryptate for the HTRF assay; also called 6G4 antibodies; cryptate-labeled 6G4 antibodies) VH: EVQLVESGGSLVQPGGSLKLSCAASGFTFNNYGMSWVRQIPDKRLELVATITGNGHSTYYPVSVRGRFTISRDNAKNTLYLQMSSLKSEDTAMYYCVRGYSNFAFWGQGTTLTVSS VL: not shown
